Sequences and labels used below:
T1: β-catenin (UniProt P35222 134-665, limits assumed, biotinylated in the SPR and plate assays)
T1 construct: also called beta catenin; biotinylated β-catenin
T1 sequence (looked up): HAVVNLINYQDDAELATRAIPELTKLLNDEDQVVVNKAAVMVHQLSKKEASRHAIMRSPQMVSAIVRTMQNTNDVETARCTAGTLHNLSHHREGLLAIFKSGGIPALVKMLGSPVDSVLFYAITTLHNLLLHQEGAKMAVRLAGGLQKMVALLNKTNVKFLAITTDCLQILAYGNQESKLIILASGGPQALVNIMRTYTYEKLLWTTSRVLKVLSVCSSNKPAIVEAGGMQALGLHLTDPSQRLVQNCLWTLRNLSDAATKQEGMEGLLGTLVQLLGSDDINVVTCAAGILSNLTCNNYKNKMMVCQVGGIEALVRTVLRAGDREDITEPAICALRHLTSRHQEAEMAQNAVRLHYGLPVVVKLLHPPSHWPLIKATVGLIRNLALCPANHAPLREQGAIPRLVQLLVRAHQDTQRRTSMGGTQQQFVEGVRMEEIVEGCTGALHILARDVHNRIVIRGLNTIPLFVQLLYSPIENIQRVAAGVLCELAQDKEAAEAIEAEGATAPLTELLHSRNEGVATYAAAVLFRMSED

B1: SEQ ID NO: 7 (peptide)
peptide: H-MWFLISFWA-OH
B2: SEQ ID NO: 13 (peptide)
peptide: H-MWALISFWG-OH
B3: SEQ ID NO: 249 (peptide)
peptide: KWFLICAWD
modifications: not fully specified; cyclo-H2N-K(Ahx*)WFLICAWD*-COOH
B4: SEQ ID NO: 11 (peptide)
peptide: H-MWFLASFWG-OH
B5: SEQ ID NO: 247 (peptide)
peptide: KWFLICAWD
modifications: not fully specified; cyclo-H2N-K(GABA*)WFLICAWD*-COOH
B6: SEQ ID NO: 274 (peptide)
peptide: Ac-MWFLIAFWG-OH
B7: SEQ ID NO: 240 (peptide)
peptide: MWILISFW
HELM: PEPTIDE1{[ac].M.W.I.L.I.S.F.W.[O=C(O)CCCN[*:1]]}$$$$V2.0
SMILES: CC[C@H](C)[C@H](NC(=O)[C@H](CC(C)C)NC(=O)[C@@H](NC(=O)[C@H](Cc1c[nH]c2ccccc12)NC(=O)[C@H](CCSC)NC(C)=O)[C@@H](C)CC)C(=O)N[C@@H](CO)C(=O)N[C@@H](Cc1ccccc1)C(=O)N[C@@H](Cc1c[nH]c2ccccc12)C(=O)NCCCC(=O)O
B8: SEQ ID NO: 454 (peptide)
peptide: WAQKILNDHGQAV
HELM: PEPTIDE1{[CCCCCCCCCCCCCCCC(=O)[*:2]].W.[meA].Q.K.I.L.N.D.H.[O=C([C@@H](N[*:1])C1CCCCC1)[*:2]].Q.A.V.[am]}$PEPTIDE1,PEPTIDE1,5:R3-9:R3$$$V2.0
SMILES: CCCCCCCCCCCCCCCC(=O)N[C@@H](Cc1c[nH]c2ccccc12)C(=O)N(C)[C@@H](C)C(=O)N[C@@H](CCC(N)=O)C(=O)N[C@H]1CCCCNC(=O)C[C@@H](C(=O)N[C@@H](Cc2c[nH]cn2)C(=O)N[C@H](C(=O)N[C@@H](CCC(N)=O)C(=O)N[C@@H](C)C(=O)N[C@H](C(N)=O)C(C)C)C2CCCCC2)NC(=O)[C@H](CC(N)=O)NC(=O)[C@H](CC(C)C)NC(=O)[C@H]([C@@H](C)CC)NC1=O
B9: SEQ ID NO: 51 (peptide)
peptide: H-MSRMWILISFWG-OH
B10: SEQ ID NO: 451 (peptide)
peptide: WAESILKEHVQRVWG
HELM: PEPTIDE1{[CCCCCCCCCCCC(=O)[*:2]].W.[meA].E.S.I.L.K.E.H.V.Q.R.V.W.G.[am]}$PEPTIDE1,PEPTIDE1,4:R3-8:R3$$$V2.0
SMILES: CCCCCCCCCCCC(=O)N[C@@H](Cc1c[nH]c2ccccc12)C(=O)N(C)[C@@H](C)C(=O)N[C@H]1CCC(=O)NCCCC[C@@H](C(=O)N[C@@H](CCC(=O)O)C(=O)N[C@@H](Cc2c[nH]cn2)C(=O)N[C@H](C(=O)N[C@@H](CCC(N)=O)C(=O)N[C@@H](CCCNC(=N)N)C(=O)N[C@H](C(=O)N[C@@H](Cc2c[nH]c3ccccc23)C(=O)NCC(N)=O)C(C)C)C(C)C)NC(=O)[C@H](CC(C)C)NC(=O)[C@H]([C@@H](C)CC)NC(=O)[C@H](CO)NC1=O
B11: SEQ ID NO: 456 (peptide)
peptide: WXQKILNDHGQRVW
HELM: PEPTIDE1{[CCCCCCCCCCCC(=O)[*:2]].W.[Aib].Q.K.I.L.N.D.H.[O=C([C@@H](N[*:1])C1CCCCC1)[*:2]].Q.R.V.W.[am]}$PEPTIDE1,PEPTIDE1,5:R3-9:R3$$$V2.0
SMILES: CCCCCCCCCCCC(=O)N[C@@H](Cc1c[nH]c2ccccc12)C(=O)NC(C)(C)C(=O)N[C@@H](CCC(N)=O)C(=O)N[C@H]1CCCCNC(=O)C[C@@H](C(=O)N[C@@H](Cc2c[nH]cn2)C(=O)N[C@H](C(=O)N[C@@H](CCC(N)=O)C(=O)N[C@@H](CCCNC(=N)N)C(=O)N[C@H](C(=O)N[C@@H](Cc2c[nH]c3ccccc23)C(N)=O)C(C)C)C2CCCCC2)NC(=O)[C@H](CC(N)=O)NC(=O)[C@H](CC(C)C)NC(=O)[C@H]([C@@H](C)CC)NC1=O
B12: SEQ ID NO: 44 (peptide)
peptide: H-MSRMWFLISFWTG-OH
B13: SEQ ID NO: 485 (peptide)
peptide: Ac-PQKILDEHVQRVMK-NH2
modifications: bridge 3-7; also: K3* and E7* marked (linkage not given here)
B14: SEQ ID NO: 477 (peptide)
peptide: W[NMeA]QKILDEH[Chg]EAVWK
modifications: lactam 11-15, 4-8 (inferred); not fully specified (N-terminus); printed as H23C11C(O)-NH-W-NMeA-QK*ILDE*H-Chg-E*AVWK*
B15: SEQ ID NO: 490 (peptide)
peptide: Palmitoyl-PQKILDEH[Chg]QRVMK-NH2
modifications: bridge 3-7; also: K3* and E7* marked (linkage not given here)
B16: SEQ ID NO: 486 (peptide)
peptide: PQKILDEHVQRVMK-NH2
modifications: bridge 3-7; not fully specified (N-terminus); printed as H23C11C(O)-PQK*ILDE*HVQRVMK-NH2; also: K3* and E7* marked (linkage not given here)
B17: SEQ ID NO: 453 (peptide)
peptide: WAQKILNDHGQAV
HELM: PEPTIDE1{[CCCCCCCCCCCC(=O)[*:2]].W.[meA].Q.K.I.L.N.D.H.[O=C([C@@H](N[*:1])C1CCCCC1)[*:2]].Q.A.V.[am]}$PEPTIDE1,PEPTIDE1,5:R3-9:R3$$$V2.0
SMILES: CCCCCCCCCCCC(=O)N[C@@H](Cc1c[nH]c2ccccc12)C(=O)N(C)[C@@H](C)C(=O)N[C@@H](CCC(N)=O)C(=O)N[C@H]1CCCCNC(=O)C[C@@H](C(=O)N[C@@H](Cc2c[nH]cn2)C(=O)N[C@H](C(=O)N[C@@H](CCC(N)=O)C(=O)N[C@@H](C)C(=O)N[C@H](C(N)=O)C(C)C)C2CCCCC2)NC(=O)[C@H](CC(N)=O)NC(=O)[C@H](CC(C)C)NC(=O)[C@H]([C@@H](C)CC)NC1=O
B18: SEQ ID NO: 46 (peptide)
peptide: H-MSRMWFLICFWG-OH
B19: SEQ ID NO: 63 (peptide)
peptide: H-MSRMWFLFSFWG-OH
B20: SEQ ID NO: 68 (peptide)
peptide: H-MSRMWFLISLWG-OH
B21: SEQ ID NO: 70 (peptide)
peptide: H-MSRMWFLNSFWG-OH
B22: SEQ ID NO: 65 (peptide)
peptide: H-MSRMWFPISFWG-OH
B23: SEQ ID NO: 67 (peptide)
peptide: H-MGRMWFLISFWG-OH
B24: SEQ ID NO: 64 (peptide)
peptide: H-MSRVWFLISFWG-OH
B25: SEQ ID NO: 487 (peptide)
peptide: Palmitoyl-PQKILDEHVQRVMK-NH2
modifications: bridge 3-7; also: K3* and E7* marked (linkage not given here)
B26: SEQ ID NO: 476 (peptide)
peptide: Ac-W[NMeA]QKILDEH[Chg]EAVWK
modifications: lactam 11-15, 4-8 (inferred)
B27: SEQ ID NO: 488 (peptide)
peptide: Ac-PQKILDEH[Chg]QRVMK-NH2
modifications: lactam 3-7
B28: SEQ ID NO: 49 (peptide)
peptide: H-MWFLISFWRG-OH
B29: SEQ ID NO: 489 (peptide)
peptide: PQKILDEH[Chg]QRVMK-NH2
modifications: lactam 3-7; not fully specified (N-terminus); printed as H23C11C(O)-PQK*ILDE*H-Chg-QRVMK-NH2

Several values for one entry are separate records, joined by “and”; a condition that tells them apart may be missing. Identical values can stand only once. Bridges are numbered along the chain shown (N, C = ends). Where no end group is shown, it is not given here. [ ]: non-standard residue; d: D form. The star is where a group is joined. Palmitoyl = CCCCCCCCCCCCCCCC(=O)*; Chg = N[C@H](C(=O)O)C1CCCCC1; NMeA = CN[C@@H](C)C(=O)O

Experimental findings from US20260098059A1 (ENDOMET BIOSCIENCES, published 2026) are described below.

The first assay concerns the target T1, β-catenin. Put plainly: competitive FP. An excerpt: Fluorescence polarization (FP) is another method used to analyze protein-ligand interactions. This methodology measures the change in fluorescence light emitted by a labelled compound free vs. conjugated to another compound in solution. Upon binding of the fluorescent molecule to a complex, polarization increases because of limited rotation of the fluorescent tracer. Competitive FP is often utilized in drug screens as it is formatted for high throughput screens in a plate format. This immunoassay is performed by introducing a non-conjugated drug to compete for binding to the labelled competitor-ligand complex, leading to a reduction in polarization. […] Exemplary methodology is described in Example 13. Data were analyzed and plotted in Microsoft Excel (Microsoft, Redmond, WA).
Varying concentrations of β-catenin inhibitor candidate (SEQ ID NO: 404) were then added in a series of serial dilutions from 10 nM to 30 uM of inhibitor in different wells of the plate. The fluorescence polarization was read by Infinite M1000 (Tecan, Baldwin Park CA) at excitation wavelength of 470 nm and measured at emission wavelength of 520 nm. […] The experiments were performed three times and data were analyzed and plotted in Microsoft Excel (Microsoft, Redmond, WA).
B1: the Kd is > 10 µM and ≤ 30 µM.

Consider B2, for which the equilibrium dissociation constant (Kd) was > 0.4 µM and ≤ 1 µM.

As for B3, the Kd was > 0.4 µM and ≤ 1 µM.

As for B4, the Kd was > 0.4 µM and ≤ 1 µM.

Molecule B5 came in with a Kd of at most 0.4 µM.

For the molecule B6, the Kd is at most 0.4 µM.

B7 yielded a Kd of at most 0.4 µM.

In the next assay the target is T1, β-catenin. Briefly: cell-based or functional assay.
B8: the “Wnt Reporter EC50” value was at most 7.5 µM.

For B9, the “Wnt Reporter EC50” value is > 7.5 µM and ≤ 15 µM.

Turning to B10, the “Wnt Reporter EC50” value was at most 7.5 µM.

With B11, the “Wnt Reporter EC50” value was at most 7.5 µM.

As for B12, the “Wnt Reporter EC50” value was > 15 µM and ≤ 22.5 µM.

Take B13: the “Wnt Reporter EC50” value was over 30 µM.

B14: the “Wnt Reporter EC50” value is at most 7.5 µM.

For B15, the “Wnt Reporter EC50” value was at most 7.5 µM.

In the case of B16, the “Wnt Reporter EC50” value is over 30 µM.

B17: the “Wnt Reporter EC50” value was at most 7.5 µM.

Regarding B18, the “Wnt Reporter EC50” value was at most 7.5 µM.

Turning to B19, the “Wnt Reporter EC50” value was at most 7.5 µM.

As to B20, the “Wnt Reporter EC50” value was > 7.5 µM and ≤ 15 µM.

On to B21, for which the “Wnt Reporter EC50” value was over 30 µM.

B22: the “Wnt Reporter EC50” value is over 30 µM.

Turning to B23, the “Wnt Reporter EC50” value is at most 7.5 µM.

With B24, the “Wnt Reporter EC50” value is > 7.5 µM and ≤ 15 µM.

As to B25, the “Wnt Reporter EC50” value is at most 7.5 µM.

As for B26, the “Wnt Reporter EC50” value was > 7.5 µM and ≤ 15 µM.

For B27, the “Wnt Reporter EC50” value is at most 7.5 µM.

B28: the “Wnt Reporter EC50” value was at most 7.5 µM.

As to B29, the “Wnt Reporter EC50” value was > 15 µM and ≤ 22.5 µM.

For orientation: Kd means the free concentration of one partner at which half of the binding sites on the other are occupied at equilibrium, for simple one-to-one binding. The low end stands for a tighter complex, the high end for a looser complex.
